According to patent US20220267469A1 (LIPUM, published 2022):
Substitutions are numbered along the chain they refer to. Names may count otherwise.

B1: S-SL048-10 hIgG4 S228P (antibody, V domains shown)
VH: QVQLVQSGAEVKKPGASVKVSCKASGYTFTSYNMHWVRQAPGQGLEWIGVINPSDGYTSYAQKFQGRVTMTRDTSTSTVYMELSSLRSEDTAVYYCARDYYGSSPLGYWGQGTLVTVSS
VL: DIQMTQSPSSLSASVGDRVTITCRASPSISYLNWYQQKPGKAPKLLIYATSRLPSGVPSRFSGSGSGTDFTLTISSLQPEDFATYYCQQRSSSPTFGQGTKLEIK
notes: Tested as human IgG4 S228P
B2: S-SL048-107 hIgG4 S228P (antibody, V domains shown)
VH: B1 VH with I48M, S54G, Y57A, A61N
VL: B1 VL with R52S
notes: Tested as human IgG4 S228P
B3: S-SL048-108 hIgG4 S228P (antibody, V domains shown)
VH: B1 VH with Y57A, Q65K
VL: B1 VL with R24S, R52S, P54A
notes: Tested as human IgG4 S228P
B4: S-SL048-12 hIgG4 S228P (antibody, V domains shown)
VH: B1 VH with I48M, Y57A, A61T
VL: B1 VL with R24S, P27S, L32M, N33H, T50A, P54A, Q88H, S93T, P94S
notes: Tested as human IgG4 S228P
B5: S-SL048-75 hIgG4 S228P (antibody, V domains shown)
VH: B1 VH with I48M, N52Y, S54G, D55G, Q65K
VL: B1 VL with P27Q, R52N, P54Q, Q88H
notes: Tested as human IgG4 S228P
B6: S-SL048-110 hIgG4 S228P (antibody, V domains shown)
VH: B1 VH with I48M, S54G, Y57A, A61N, Q65K
VL: B1 VL with R24S, P27Q, N33H, T50A, P54A, Q88H, S93T
notes: Tested as human IgG4 S228P
B7: S-SL048-81 hIgG4 S228P (antibody, V domains shown)
VH: B1 VH with S54G, Y57A
VL: B1 VL with P27S, L32M, N33H, T50A, R52S, P54Q, Q88H
notes: Tested as human IgG4 S228P
B8: S-SL048-79 hIgG4 S228P (antibody, V domains shown)
VH: B1 VH with I48M, Y57A
VL: B1 VL with R24S, P27Q, T50A, Q88H, S93Y
notes: Tested as human IgG4 S228P
B9: S-SL048-115 hIgG4 S228P (antibody, V domains shown)
VH: B1 VH with I48M, Y57A, Q65K
VL: B1 VL with P27Q, L32M, N33H, T50A, R52K, Q88H
notes: Tested as human IgG4 S228P
B10: S-SL048-18 hIgG4 S228P (antibody, V domains shown)
VH: B1 VH with I48M, Y57A, A61T, Q65K
VL: B1 VL with P27S, P54Q, Q88H, S93T
notes: Tested as human IgG4 S228P
B11: S-SL048-13 hIgG4 S228P (antibody, V domains shown)
VH: B1 VH with Y57A, A61T
VL: B1 VL with R24S, R52S, P54A
notes: Tested as human IgG4 S228P
B12: S-SL048-43 hIgG4 S228P (antibody, V domains shown)
VH: B1 VH with I48M, S54G, Y57A, A61T
VL: B1 VL with L32M, T50A, R52S
notes: Tested as human IgG4 S228P
B13: S-SL048-45 hIgG4 S228P (antibody, V domains shown)
VH: B1 VH with I48M, Y57A, A61T
VL: B1 VL with P27Q, N33H, T50A, P54A, Q88H, S93T
notes: Tested as human IgG4 S228P
B14: S-SL048-17 hIgG4 S228P (antibody, V domains shown)
VH: B1 VH with I48M, S54G, A61T, Q65K
VL: B1 VL with P27Q, T50A, R52K
notes: Tested as human IgG4 S228P
B15: S-SL048-105 hIgG4 S228P (antibody, V domains shown)
VH: B1 VH with I48M, Y57A
VL: B1 VL with R24S, P27Q, N33H, T50A, R52K, Q88H, S93Y
notes: Tested as human IgG4 S228P
B16: S-SL048-104 hIgG4 S228P (antibody, V domains shown)
VH: B1 VH with I48M, S54G, Y57A, A61D, Q65K
VL: B1 VL with R24S, P27S, N33H, T50A, P54A, Q88H, S93T
notes: Tested as human IgG4 S228P
B17: S-SL048-86 hIgG4 S228P (antibody, V domains shown)
VH: B1 VH with I48M, S54G, Y57A
VL: B1 VL with P27Q, N33H, R52S, P54Q, Q88H, S93Y
notes: Tested as human IgG4 S228P
B18: S-SL048-89 hIgG4 S228P (antibody, V domains shown)
VH: B1 VH with I48M, D55S, Y57S, A61T
VL: B1 VL with S93N
notes: Tested as human IgG4 S228P
B19: S-SL048-47 hIgG4 S228P (antibody, V domains shown)
VH: B1 VH with S54G, D55G, A61T
VL: B1 VL with R24S, L32M, P54Q, S93T
notes: Tested as human IgG4 S228P
B20: S-SL048-134 hIgG4 S228P (antibody, V domains shown)
VH: B1 VH with I48M, Y57A, Q65K
VL: B1 VL with R52K, S93Y
notes: Tested as human IgG4 S228P
B21: S-SL048-112 hIgG4 S228P (antibody, V domains shown)
VH: B1 VH with V50I, N52Y, S54G, Y57A, A61N, Q65K
VL: B1 VL with P27S, L32M, N33H, P54A, Q88H, S93T
notes: Tested as human IgG4 S228P

biological target: T1, Mouse BSSL, recombinant (mouse, UniProt Q64285 21-599); assay: SPR steady state, hIgG4 S228P captured by anti-Fab
T1 construct: Bought (R&D Systems, Cat. no 5658-CE); also called mBSSL; murine BSSL
T1 sequence: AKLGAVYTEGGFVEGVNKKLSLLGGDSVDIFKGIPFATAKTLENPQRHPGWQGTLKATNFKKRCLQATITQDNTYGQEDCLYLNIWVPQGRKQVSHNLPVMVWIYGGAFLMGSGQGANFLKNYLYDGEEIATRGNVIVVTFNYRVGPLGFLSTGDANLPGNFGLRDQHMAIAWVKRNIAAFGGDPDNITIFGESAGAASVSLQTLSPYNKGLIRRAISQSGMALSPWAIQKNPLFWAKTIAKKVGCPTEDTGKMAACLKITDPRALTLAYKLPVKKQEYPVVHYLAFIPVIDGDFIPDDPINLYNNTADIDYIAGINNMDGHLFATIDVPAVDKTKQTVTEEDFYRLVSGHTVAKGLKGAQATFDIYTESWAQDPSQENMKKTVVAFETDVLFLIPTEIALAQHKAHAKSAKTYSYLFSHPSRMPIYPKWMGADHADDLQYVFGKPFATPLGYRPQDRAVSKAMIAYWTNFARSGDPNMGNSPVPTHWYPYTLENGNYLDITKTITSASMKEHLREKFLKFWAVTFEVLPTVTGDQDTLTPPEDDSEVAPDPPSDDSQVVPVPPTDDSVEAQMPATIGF
Procedure: (§1) Kinetic parameters of the hIgG4 S228P clones were determined by SPR using BIACORE® T200 (GE Healthcare). Single cycle kinetics was used to measure the affinity of the purified hIgG4 molecules to human and mouse BSSL. An anti-Fab antibody (GE Healthcare, #28958325) was immobilized on a CM5 S sensor chip by primary amine coupling using NHS-EDC chemistry. hIgG4 was captured by the anti-Fab antibody, and subsequently, five different concentrations of hBSSL (1:5 dilutions starting from 50 nM) or mBSSL (1:5 dilutions starting from 500 nM) were injected over the surface. The sensor chip surface was regenerated with 10 mM glycine-HCl pH 2.1. For binding to human BSSL, single cycle kinetic data was fitted to a 1:1 binding model and kinetic parameters were retrieved using software BlAevaluation. For mouse BSSL, a steady state analysis was performed by plotting the response level at equilibrium against each concentration, and KD values were retrieved by the BlAevalution software.

Binder | Kd [nM]
B1 | 57
B2 | 98
B3 | 149
B4 | 57
B5 | 164
B6 | 168
B7 | 60
B8 | 48
B9 | 186
B10 | 68
B11 | 57
B12 | 137
B13 | 82
B14 | 68
B15 | 237
B16 | 111
B17 | 167

biological target: T2, Human BSSL (bile salt-stimulated lipase), native (human, UniProt P19835 21-753); assay: SPR single cycle kinetics, hIgG4 S228P captured by anti-Fab
T2 construct: Native full-length protein purified from human milk (Astra Hässle AB); also called hBSSL; non-biotinylated human BSSL
T2 sequence: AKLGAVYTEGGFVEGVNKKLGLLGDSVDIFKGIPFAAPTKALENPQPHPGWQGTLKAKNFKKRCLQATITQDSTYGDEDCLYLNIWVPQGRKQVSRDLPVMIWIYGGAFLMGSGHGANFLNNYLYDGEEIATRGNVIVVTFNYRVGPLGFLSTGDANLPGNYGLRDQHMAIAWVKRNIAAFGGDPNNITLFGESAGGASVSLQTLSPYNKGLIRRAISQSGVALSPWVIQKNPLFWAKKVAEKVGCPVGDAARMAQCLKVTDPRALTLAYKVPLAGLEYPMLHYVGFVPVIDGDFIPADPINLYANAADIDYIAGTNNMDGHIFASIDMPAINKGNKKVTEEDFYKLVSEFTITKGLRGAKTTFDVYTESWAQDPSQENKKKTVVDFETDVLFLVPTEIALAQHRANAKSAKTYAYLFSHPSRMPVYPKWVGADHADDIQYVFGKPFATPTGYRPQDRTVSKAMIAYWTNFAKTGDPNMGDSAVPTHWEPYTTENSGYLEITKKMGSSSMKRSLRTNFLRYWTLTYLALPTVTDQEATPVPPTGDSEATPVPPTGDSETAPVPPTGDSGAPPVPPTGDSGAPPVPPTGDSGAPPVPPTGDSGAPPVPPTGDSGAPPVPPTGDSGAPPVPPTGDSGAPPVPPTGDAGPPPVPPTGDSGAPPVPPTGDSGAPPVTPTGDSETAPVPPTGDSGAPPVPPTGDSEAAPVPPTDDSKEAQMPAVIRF
Procedure: as §1

Binder | Kd [nM]
B1 | 2.2
B2 | 1.2
B3 | 1.3
B4 | 6.4
B18 | 6
B6 | 5.9
B7 | 4.4
B8 | 5
B9 | 6
B10 | 2.3
B19 | 8.5
B11 | 0.9
B12 | 1.2
B20 | 1.8
B13 | 9.6
B21 | 5
B14 | 4.3
B15 | 6
B16 | 3.3
B17 | 6.8

biological target: T3, Biotinylated human BSSL (human, UniProt P19835 21-753, Biotinylated on glycosacarides, 30-40 biotin/BSSL); assay: flow cytometry displacement assay; 1.5 ug antibody, 1 ug b-hBSSL
T3 construct: hBSSL biotinylated in house; also called b-hBSSL; human BSSL-biotin
T3 sequence: T2 sequence
Procedure: (§2) The 28 BSSL-specific hIgG4 antibodies and the five reference antibodies at different concentrations (ranging from 0.5 μg to 3.0 μg per reaction; see Table 10) were added to b-hBSSL (1 μg per reaction, see Table 2) in round-bottom polystyrene tubes, lx PBS (pH 7.4) was added to a final volume of 20 μl and the antibody/b-hBSSL mixtures were incubated for 30 min. at +4° C. to facilitate binding of antibodies to BSSL. Buffy coat (50 μl) was then added to each antibody/b-hBSSL mixture and incubation continued for another 30 min at +4° C. Thereafter, 2 ml of FACS lysing solution (BD Biosciences) was added and the cells were incubated for 10 min at room temperature in order to lyse erythrocytes and fix the white blood cells. The cells were then centrifuged for 5 min. at 200×g, the resulting pellets were washed by adding 2 ml of FACS buffer (1×PBS supplemented with 1% FCS and 0.1% NaN3) and centrifuged again. Finally, the supernatants were discarded and the cells were resuspended in the last drop of liquid, approximately 50 μl.
(§3) 5 μl of BV421-labelled anti-human CD14 (BD Biosciences) and 5 μl of BB515-labelled streptavidin (BD Biosciences) was added to each tube and incubated for 30 min, at +4° C., protected from light. Thereafter, cells were washed twice with FACS buffer, resuspended in 500 μl FACS buffer, and run on BD LSRII flow cytometer (BD Biosciences). Finally, data were analyzed using FlowJo software (BD Biosciences).

Binder | percentage reduction of b-hBSSL binding to CD14+ monocytes [%]
B1 | 34
B2 | 37
B3 | 41
B7 | 31
B8 | 20
B10 | 58
B12 | 37
B21 | 28
B14 | 16
B16 | 2

biological target: T3, Biotinylated human BSSL; assay: flow cytometry displacement assay; 3.0 ug antibody, 1 ug b-hBSSL
Procedure: as §2, §3

Binder | percentage reduction of b-hBSSL binding to CD14+ monocytes [%]
B1 | 42
B2 | 49
B3 | 48
B7 | 62
B8 | 52
B10 | 61
B12 | 55
B21 | 54
B14 | 36
B16 | 44
